Experimental data taken from patent publication US20240075137A1 (COMPUGEN, published 2024).

B7: human TIGIT on cells (receptor)
chain: MMTGTIETTGNISAEKGGSIILQCHLSSTTAQVTQVNWEQQDQLLAICNADLGWHISPSFKDRVAPGPGLGLTLQSLTVNDTGEYFCIYHTYPDGTYTGRIFLEVLESSVAEHGARFQIP
notes: also called Expi293 human TIGIT over-expressing cells

Experiments:
[1] = biological target: T1, human TIGIT ECD with C-terminal polyhistidine tag (human, UniProt Q495A1 22-141); assay: SPR (ProteOn), mAb captured, human TIGIT injected
T1 construct: in-house or Sino Biological; also called hTIGIT-HIS; human TIGIT-HIS
T1 sequence: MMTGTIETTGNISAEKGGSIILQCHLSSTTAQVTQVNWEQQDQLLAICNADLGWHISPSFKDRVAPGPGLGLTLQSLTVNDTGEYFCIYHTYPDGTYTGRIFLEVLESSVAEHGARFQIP

Mouse TIGIT-His [2] = biological target: T2, Mouse TIGIT-His (mouse, UniProt P86176); assay: SPR (ProteOn), mAb captured, mouse TIGIT monomer injected
T2 construct: also called mouse TIGIT monomer (prepared in-house)
T2 sequence (soluble monomer with His tag, looked up): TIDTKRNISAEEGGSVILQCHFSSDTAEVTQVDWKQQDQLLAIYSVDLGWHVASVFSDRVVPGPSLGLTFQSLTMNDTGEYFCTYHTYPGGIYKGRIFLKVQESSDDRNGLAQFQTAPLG

cyno TIGIT on cells [3] = biological target: T3, cyno TIGIT on cells (cynomolgus macaque); assay: FACS KD on Expi293 cyno TIGIT over-expressing cells; ± 95% CI of the fit
T3 construct: whole, on cells; also called Expi293 cyno TIGIT over-expressing cells

human TIGIT on cells [4] = biological target: B7; assay: FACS KD on Expi293 human TIGIT over-expressing cells; ± 95% CI of the fit
human TIGIT on cells [5] = biological target: B7; assay: FACS blocking: Expi293 human TIGIT cells pre-incubated with mAb, then human PVR-m2aFc; lower gMFI = more blocking
mouse TIGIT on cells = biological target: T4, mouse TIGIT on cells (mouse, UniProt P86176 29-249); assay: FACS titration of AF647-labelled mAb on mouse CD4+CD25+Foxp3+ Tregs from Renca tumors; no unit beside the value, nM taken from the axis (binding site)
T4 construct: whole, on cells; also called mouse TIGIT over-expressing HEK cells; mouse Tregs
T4 sequence (looked up): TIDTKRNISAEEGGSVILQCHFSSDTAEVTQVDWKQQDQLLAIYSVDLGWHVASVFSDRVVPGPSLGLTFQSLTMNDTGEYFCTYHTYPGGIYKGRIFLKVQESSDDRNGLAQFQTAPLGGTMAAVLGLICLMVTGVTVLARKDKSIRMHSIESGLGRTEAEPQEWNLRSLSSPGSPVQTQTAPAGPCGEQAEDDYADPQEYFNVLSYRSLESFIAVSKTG

Cyno TIGIT-His [6] = biological target: T5, Cyno TIGIT-His; assay: SPR (ProteOn), Cyno TIGIT-His
T5 construct: also called cyno TIGIT monomer (prepared in-house); C-terminal HIS-tagged cyno TIGIT ECD recombinant protein
T5 sequence (ECD with C-terminal His tag, as listed by the source): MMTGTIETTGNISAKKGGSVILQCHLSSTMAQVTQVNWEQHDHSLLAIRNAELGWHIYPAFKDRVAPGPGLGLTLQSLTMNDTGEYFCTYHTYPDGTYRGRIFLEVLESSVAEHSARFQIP

[7] = biological target: T1, human TIGIT ECD with C-terminal …; assay: SPR (ProteOn), Human TIGIT-His
Mouse TIGIT-His [8] = biological target: T2, Mouse TIGIT-His; assay: SPR (ProteOn), Mouse TIGIT-His
[9] = biological target: T1, human TIGIT ECD with C-terminal …; assay: KinExA equilibrium, His-tagged human TIGIT, n = 1
[10] = biological target: T1, human TIGIT ECD with C-terminal …; assay: KinExA equilibrium, His-tagged human TIGIT, n = 2
human TIGIT on cells [11] = biological target: B7; assay: FACS titration of AF647-labelled mAb on human effector memory CD8+ T cells, Donor 321
human TIGIT on cells [12] = biological target: B7; assay: FACS titration of AF647-labelled mAb on human effector memory CD8+ T cells, Donor 322
human TIGIT on cells [13] = biological target: B7; assay: FACS titration of AF647-labelled mAb on human effector memory CD8+ T cells, Donor 334
cyno TIGIT on cells [14] = biological target: T3, cyno TIGIT on cells; assay: FACS titration on cyno TIGIT OE Expi293 cells, binding site concentration; ± 95% CI; 'Fit: Good'
human TIGIT on cells [15] = biological target: B7; assay: FACS titration on human TIGIT OE Expi293 cells, binding site concentration; ± 95% CI; 'Fit: Good/Excellent'
human TIGIT on cells [16] = biological target: B7; assay: FACS blocking of human PVR-m2aFc binding to human TIGIT OE Expi293 cells; binding site concentration; n=1
human TIGIT on cells [17] = biological target: B7; assay: FACS blocking of human PVR-m2aFc binding to human TIGIT OE Expi293 cells; binding site concentration; n=2
cyno TIGIT on cells [18] = biological target: T3, cyno TIGIT on cells; assay: FACS titration of AF647-labelled mAb on cyno effector memory CD8+ T cells, Cyno Donor 1; isotype gMFI subtracted
cyno TIGIT on cells [19] = biological target: T3, cyno TIGIT on cells; assay: FACS titration of AF647-labelled mAb on cyno effector memory CD8+ T cells, Cyno Donor 3; isotype gMFI subtracted
Cyno TIGIT-His [20] = biological target: T5, Cyno TIGIT-His; assay: SPR (ProteOn), mAb captured, cyno TIGIT monomer injected
Cyno TIGIT-His [21] = biological target: T5, Cyno TIGIT-His; assay: SPR (ProteOn), mAb captured, cyno TIGIT monomer injected; kd of this row held constant
[22] = biological target: T6, human PVR-h1Fc (Sino Biological #10109-H20H) (human, UniProt P15151 21-343); assay: FACS titration on Expi293 human TIGIT over-expressing cells (gMFI OE:Parental); ± 95% CI; 'Fit: Fair'
T6 construct: bought; also called hPVR-hFc; Sino PVR-Fc
T6 sequence (looked up): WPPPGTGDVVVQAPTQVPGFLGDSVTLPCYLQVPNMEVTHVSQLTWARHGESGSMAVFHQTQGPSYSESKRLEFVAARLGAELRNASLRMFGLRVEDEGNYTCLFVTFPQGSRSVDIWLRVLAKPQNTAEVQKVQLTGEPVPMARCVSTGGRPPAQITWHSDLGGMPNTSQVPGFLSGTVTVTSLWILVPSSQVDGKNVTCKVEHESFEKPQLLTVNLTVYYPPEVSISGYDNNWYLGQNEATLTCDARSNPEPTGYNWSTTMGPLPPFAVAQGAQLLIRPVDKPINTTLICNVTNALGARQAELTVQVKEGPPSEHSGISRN

B1: CPA.9.049 hIgG4 (antibody, V domains shown)
VH: EVQLVETGGGLIQPGRSLRLSCAASGFTFSSYAMHWVRQAPGKGLEWVAVISYDGSNKYYADSVKGRFTISRDNSKNTLYLQMNSLRAEDTAVYYCARDPLPLHYYGMDVWGQGTTVTVSS
VL: QSALTQPRSASGNPGQRVTISCSGSSSNMGRRPVNWYQQIPGTAPKLLIYSQNQRPSGVPDRFSGSQSGTSASLTISGLQSEDEAEYFCAVWDDSLFSLLLGGGTQLAVLG
notes: phage-derived anti-TIGIT, human IgG4; also called CPA.9.049-H4
Q: Which results are given for B1?
A: Kd [1]: 0.0945 nM; Kd (Mouse TIGIT-His [2]): 82.7 nM; Kd (cyno TIGIT on cells [3]): 1.88 nM; Kd (human TIGIT on cells [4]): 0.26 nM; gMFI of bound PVR-m2aFc at 266 pM mAb (human TIGIT on cells [5]): 511; gMFI of bound PVR-m2aFc at 1.3 nM mAb (human TIGIT on cells [5]): 276; gMFI of bound PVR-m2aFc at 6.7 nM mAb (human TIGIT on cells [5]): 215

B2: CPA.9.083 reformatted as mouse IgG1 (antibody, V domains shown)
VH: EVQLVETGGGLIQPGRSLRLSCAASGFTFSSYAMHWVRQAPGKGLEWVAVISYDGTPVYYADSVKGRFTISRDNSKNTLYLQMNSLRAEDTAVYYCARDPLPLHYYGMDVWGQGTTVTVSS
VL: QSALTQPRSASGNPGQRVTISCSGSSSNMGRRPVNWYQQIPGTAPKLLIYSQNQRPSGVPDRFSGSQSGTSASLTISGLQSEDEAEYFCAVWDGDRRSLQLGGGTQLAVLG
notes: also called CPA.9.083 mIgG1
Q: B2 was tested. Which Kd (mouse TIGIT on cells) did it give?
A: 0.4 nM

B3: CPA.9.086 reformatted as mouse IgG1 (antibody, V domains shown)
VH: EVQLVETGGGLIQPGRSLRLSCAASGFTFSSYAMHWVRQAPGKGLEWVAVISYAGEVKYYADSVKGRFTISRDNSKNTLYLQMNSLRAEDTAVYYCARDPLPLHYYGMDVWGQGTTVTVSS
VL: QSALTQPRSASGNPGQRVTISCSGSSSNMGRRPVNWYQQIPGTAPKLLIYSQNQRPSGVPDRFSGSQSGTSASLTISGLQSEDEAEYFCAVWDDIGRVLQLGGGTQLAVLG
notes: also called CPA.9.086 mIgG1
Q: With B3 as the binder, how does the Kd (mouse TIGIT on cells) read?
A: 0.68 nM

B4: CPA.9.086.H4(S241P) (antibody, human IgG4 S228P, lambda, V domains shown)
VH: EVQLVETGGGLIQPGRSLRLSCAASGFTFSSYAMHWVRQAPGKGLEWVAVISYAGEVKYYADSVKGRFTISRDNSKNTLYLQMNSLRAEDTAVYYCARDPLPLHYYGMDVWGQGTTVTVSS
VL: QSALTQPRSASGNPGQRVTISCSGSSSNMGRRPVNWYQQIPGTAPKLLIYSQNQRPSGVPDRFSGSQSGTSASLTISGLQSEDEAEYFCAVWDDIGRVLQLGGGTQLAVLG
Q: Which results are given for B4?
A: binding result (Cyno TIGIT-His [6]): binds; Kd [7]: 0.0023 nM; Kd (Mouse TIGIT-His [8]): 0.663 nM; Kd [9]: 0.000553 nM; Kd [10]: 0.000665 nM; Kd (human TIGIT on cells [11]): 0.09 nM; Kd (human TIGIT on cells [12]): 0.11 nM; Kd (human TIGIT on cells [13]): 0.13 nM; Kd (cyno TIGIT on cells [14]): 0.3 nM; Kd (human TIGIT on cells [15]): 0.35 nM; IC50 (human TIGIT on cells [16]): 0.36 nM; IC50 (human TIGIT on cells [17]): 0.18 nM; Kd (cyno TIGIT on cells [18]): 0.43 nM; Kd (cyno TIGIT on cells [19]): 0.98 nM

B5: CPA.9.059 hIgG4 (antibody, V domains shown)
VH: EVQLVETGGGLIQPGGSLRLSCAASGFTVSSNYMSWVRQAPGKGLEWVSVIYSGGSTYYADSVKGRFTISRDNSKNTLYLQMNSLRAEDTAVYYCARGARYSYGQYPYWGQGTLVTVSS
VL: DIQLTQSPSFLSASVGDRVTITCRASHDISSLFSWYQQKPGKAPKLLIYAASTLQTGVPSRFSGSASGTEFTLTISSLQPEDFATYYCLQLDSFPTWTFGQGTKVEIKR
notes: phage-derived anti-TIGIT, human IgG4; also called CPA.9.059-H4
Q: B5 was tested. Which Kd [1] did it give?
A: 0.0213 nM

Q: Does B5 bind (Cyno TIGIT-His [20])?
A: binds

Q: What about the Kd (human TIGIT on cells [4]) of the same binder?
A: 0.29 nM

Q: What about the “gMFI of bound PVR-m2aFc at 266 pM mAb” value (human TIGIT on cells [5]) of the same binder?
A: 509

Q: What about the “gMFI of bound PVR-m2aFc at 1.3 nM mAb” value (human TIGIT on cells [5]) of the same binder?
A: 262

Q: And the “gMFI of bound PVR-m2aFc at 6.7 nM mAb” value (human TIGIT on cells [5])?
A: 209

B6: CHA.9.543 (antibody, V domains shown)
VH: EVQLQQSGPELVKPGASMKISCKASGYSFTGYTMNWVRQSHGKNLEWLGLIFPYNGGTSYNQNFKGKATLTVDTSSSTAYMELLSLTSVDSAVYYCARGVRFALDYWGQGTSVSVSS
VL: DVVMTQTPLSLPVSFGDQVSISCRSSQSLANSYGNTYLSWYLHKPGQSPQLLIYEISNRFSGVPDRFSGSGSGTDFTLNISTIKPEDLGMYYCLQGTHQPWTFGGGTKLEIKR
Q: Which Kd [1] does the source give for B6 here?
A: 0.0231 nM

Q: What about the Kd (cyno TIGIT on cells [3]) of the same binder?
A: 17.2 nM

Q: What about the Kd (human TIGIT on cells [4]) of the same binder?
A: 10.2 nM

Q: What about the Kd (Cyno TIGIT-His [21]) of the same binder?
A: 0.00155 nM

Q: B7 was tested. Which Kd [22] did it give?
A: 10 nM
